Substrate: NC(CCC(=O)NC(CNCC(=O)O)CSCCN1C(=O)C=CC1=O)C(=O)O
Assay: TP_TRANSPORTER: uptake in membrane vesicles from MRP1-expressing Sf9 cells
Format: functional, cell membranes, Membrane vesicle

B1: Multidrug resistance-associated protein 1 (Homo sapiens) (protein)
chain: MALRGFCSADGSDPLWDWNVTWNTSNPDFTKCFQNTVLVWVPCFYLWACFPFYFLYLSRHDRGYIQMTPLNKTKTALGFLLWIVCWADLFYSFWERSRGIFLAPVFLVSPTLLGITMLLATFLIQLERRKGVQSSGIMLTFWLVALVCALAILRSKIMTALKEDAQVDLFRDITFYVYFSLLLIQLVLSCFSDRSPLFSETIHDPNPCPESSASFLSRITFWWITGLIVRGYRQPLEGSDLWSLNKEDTSEQVVPVLVKNWKKECAKTRKQPVKVVYSSKDPAQPKESSKVDANEEVEALIVKSPQKEWNPSLFKVLYKTFGPYFLMSFFFKAIHDLMMFSGPQILKLLIKFVNDTKAPDWQGYFYTVLLFVTACLQTLVLHQYFHICFVSGMRIKTAVIGAVYRKALVITNSARKSSTVGEIVNLMSVDAQRFMDLATYINMIWSAPLQVILALYLLWLNLGPSVLAGVAVMVLMVPVNAVMAMKTKTYQVAHMKSKDNRIKLMNEILNGIKVLKLYAWELAFKDKVLAIRQEELKVLKKSAYLSAVGTFTWVCTPFLVALCTFAVYVTIDENNILDAQTAFVSLALFNILRFPLNILPMVISSIVQASVSLKRLRIFLSHEELEPDSIERRPVKDGGGTNSITVRNATFTWARSDPPTLNGITFSIPEGALVAVVGQVGCGKSSLLSALLAEMDKVEGHVAIKGSVAYVPQQAWIQNDSLRENILFGCQLEEPYYRSVIQACALLPDLEILPSGDRTEIGEKGVNLSGGQKQRVSLARAVYSNADIYLFDDPLSAVDAHVGKHIFENVIGPKGMLKNKTRILVTHSMSYLPQVDVIIVMSGGKISEMGSYQELLARDGAFAEFLRTYASTEQEQDAEENGVTGVSGPGKEAKQMENGMLVTDSAGKQLQRQLSSSSSYSGDISRHHNSTAELQKAEAKKEETWKLMEADKAQTGQVKLSVYWDYMKAIGLFISFLSIFLFMCNHVSALASNYWLSLWTDDPIVNGTQEHTKVRLSVYGALGISQGIAVFGYSMAVSIGGILASRCLHVDLLHSILRSPMSFFERTPSGNLVNRFSKELDTVDSMIPEVIKMFMGSLFNVIGACIVILLATPIAAIIIPPLGLIYFFVQRFYVASSRQLKRLESVSRSPVYSHFNETLLGVSVIRAFEEQERFIHQSDLKVDENQKAYYPSIVANRWLAVRLECVGNCIVLFAALFAVISRHSLSAGLVGLSVSYSLQVTTYLNWLVRMSSEMETNIVAVERLKEYSETEKEAPWQIQETAPPSSWPQVGRVEFRNYCLRYREDLDFVLRHINVTINGGEKVGIVGRTGAGKSSLTLGLFRINESAEGEIIIDGINIAKIGLHDLRFKITIIPQDPVLFSGSLRMNLDPFSQYSDEEVWTSLELAHLKDFVSALPDKLDHECAEGGENLSVGQRQLVCLARALLRKTKILVLDEATAAVDLETDDLIQSTIRTQFEDCTVLTIAHRLNTIMDYTRVIVLDKGEIQEYGAPSDLLQQRGLFYSMAKDAGLV
Km: 155 µM
